From article PMC9600000

Target: recombinant human prolidase with N-terminal His-Tag (human) (UniProt P12955)
Experiment: SEC; Superdex 200 gel filtration in 150 mM NaCl, 25 mM Tris-HCl pH 7.5, 1 mM TCEP-HCl; mass by a commercial standard (Bio-Rad)

stoichiometry N: 2
Substance: recombinant human prolidase with N-terminal His-Tag (from UniProt P12955 1-493) (enzyme)
